Measurements from article PMC3817407.

T1: ECF04_1609
T1 chain: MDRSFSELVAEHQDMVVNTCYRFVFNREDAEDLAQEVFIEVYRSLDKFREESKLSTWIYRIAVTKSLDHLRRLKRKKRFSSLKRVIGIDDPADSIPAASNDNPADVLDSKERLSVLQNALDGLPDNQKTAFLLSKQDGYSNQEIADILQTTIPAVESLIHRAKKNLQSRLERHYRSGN

T2: ECF38_1322
T2 chain: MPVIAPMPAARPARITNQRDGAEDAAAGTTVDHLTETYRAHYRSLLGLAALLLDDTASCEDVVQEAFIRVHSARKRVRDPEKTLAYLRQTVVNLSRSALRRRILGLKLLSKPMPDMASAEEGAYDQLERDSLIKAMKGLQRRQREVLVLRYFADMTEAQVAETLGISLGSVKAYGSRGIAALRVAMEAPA

T3: ECF27_4265
T3 chain: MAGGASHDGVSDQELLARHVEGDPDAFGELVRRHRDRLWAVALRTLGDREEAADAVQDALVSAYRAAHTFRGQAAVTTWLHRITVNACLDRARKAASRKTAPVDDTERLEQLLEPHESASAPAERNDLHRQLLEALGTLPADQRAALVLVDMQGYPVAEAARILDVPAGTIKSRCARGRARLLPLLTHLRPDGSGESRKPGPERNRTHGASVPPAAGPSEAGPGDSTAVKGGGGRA

T4: ECF22_1147
T4 chain: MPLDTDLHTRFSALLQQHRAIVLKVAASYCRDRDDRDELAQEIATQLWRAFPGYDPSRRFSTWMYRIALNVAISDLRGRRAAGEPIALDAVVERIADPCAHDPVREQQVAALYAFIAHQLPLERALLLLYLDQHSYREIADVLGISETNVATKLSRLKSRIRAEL

T5: ECF14_3200
T5 chain: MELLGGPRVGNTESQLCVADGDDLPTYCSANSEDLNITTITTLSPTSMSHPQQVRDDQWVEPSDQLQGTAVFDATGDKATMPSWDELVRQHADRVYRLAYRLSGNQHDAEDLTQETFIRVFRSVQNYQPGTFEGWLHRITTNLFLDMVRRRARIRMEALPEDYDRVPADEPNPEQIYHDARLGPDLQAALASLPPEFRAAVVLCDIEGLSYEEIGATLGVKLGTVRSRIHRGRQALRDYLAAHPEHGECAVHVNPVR

T6: ECF34_1384
T6 chain: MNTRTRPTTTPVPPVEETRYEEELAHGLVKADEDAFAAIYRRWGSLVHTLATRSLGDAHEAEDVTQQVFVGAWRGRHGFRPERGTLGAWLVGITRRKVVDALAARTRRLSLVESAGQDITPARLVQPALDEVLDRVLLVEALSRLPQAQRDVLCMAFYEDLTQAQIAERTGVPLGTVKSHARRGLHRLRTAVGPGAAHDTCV

T7: ECF35_3582
T7 chain: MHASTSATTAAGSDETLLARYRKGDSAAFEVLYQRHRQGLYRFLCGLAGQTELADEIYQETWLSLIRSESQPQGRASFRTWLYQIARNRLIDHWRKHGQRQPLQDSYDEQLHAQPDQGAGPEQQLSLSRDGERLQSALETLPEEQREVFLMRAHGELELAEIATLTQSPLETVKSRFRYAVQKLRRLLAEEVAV

T8: ECF16_973
T8 chain: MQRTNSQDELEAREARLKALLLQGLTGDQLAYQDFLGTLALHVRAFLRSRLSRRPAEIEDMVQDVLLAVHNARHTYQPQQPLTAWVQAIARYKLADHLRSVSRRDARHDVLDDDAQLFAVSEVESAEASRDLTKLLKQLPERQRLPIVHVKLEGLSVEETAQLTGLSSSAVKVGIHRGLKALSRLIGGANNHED

T9: ECF03_1198
T9 chain: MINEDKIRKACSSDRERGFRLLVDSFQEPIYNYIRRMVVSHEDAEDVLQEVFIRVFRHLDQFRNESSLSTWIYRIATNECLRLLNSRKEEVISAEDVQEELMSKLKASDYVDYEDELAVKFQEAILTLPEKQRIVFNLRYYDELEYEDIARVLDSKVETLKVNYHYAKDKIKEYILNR

T10: ECF11_3726
T10 chain: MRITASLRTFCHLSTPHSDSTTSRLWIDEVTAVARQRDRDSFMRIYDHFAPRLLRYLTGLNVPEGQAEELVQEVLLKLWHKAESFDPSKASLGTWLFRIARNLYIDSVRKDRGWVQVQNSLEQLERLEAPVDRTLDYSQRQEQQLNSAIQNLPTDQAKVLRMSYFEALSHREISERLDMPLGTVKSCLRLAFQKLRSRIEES

T11: ECF37_2513
T11 chain: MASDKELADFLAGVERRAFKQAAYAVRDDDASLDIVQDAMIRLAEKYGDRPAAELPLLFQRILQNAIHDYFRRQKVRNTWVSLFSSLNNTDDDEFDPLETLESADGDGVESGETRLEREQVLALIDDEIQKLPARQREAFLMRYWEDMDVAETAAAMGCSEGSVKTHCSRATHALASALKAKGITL

T12: ECF03_1244
T12 chain: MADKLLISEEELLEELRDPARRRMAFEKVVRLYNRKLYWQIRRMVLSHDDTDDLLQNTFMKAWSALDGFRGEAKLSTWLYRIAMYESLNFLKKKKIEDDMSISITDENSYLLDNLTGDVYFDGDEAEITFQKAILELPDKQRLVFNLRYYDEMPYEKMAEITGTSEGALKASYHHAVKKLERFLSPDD

T13: ECF33_375
T13 chain: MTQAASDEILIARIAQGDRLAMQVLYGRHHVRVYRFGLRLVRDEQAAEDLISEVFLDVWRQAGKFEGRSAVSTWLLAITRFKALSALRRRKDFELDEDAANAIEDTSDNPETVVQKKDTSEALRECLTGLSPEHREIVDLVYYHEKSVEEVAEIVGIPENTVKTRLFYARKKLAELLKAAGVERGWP

B1: AS38_1322 (protein)
chain: MSDGNDARPDARDGHDPGSDARDGHDPGSHARDGHDPGAGPFDGHGPGSDAGDGDDAGPDARDGHGAPAGPAGREQRKHPHDTHDMHDTHDTHAGKGTVNHGPAAQGPDAPGADGPATDEAALRAMMQRAVREMEPSDGTLEHLRRAVPARRARKRQALVGAAAAALFLGTAVPALVHVSNATGAGADPSVAGNASQAQGGASQGKDPAGGQSGVAGTGDTPEDRDKADPKETPGGKEPGAATGAPPSGVPSASSPADVPACAPGSLGPAVASSAEPDSTGVVYGSFRVTNVSSDGCTVTGPGTVVTASLGAAEATRIGTARHAAGDAAAGLPDPSLETASLALAPGAAYEVQFAWVPSETCPTTGGTTGGGSGGPSPDPSPTADTTAAGGTSAGGGEAGPTTQLITEDGPAEGSVSVTYTPEGGSGSATATVSNACAGTVYWTGLLADSGSGA
B2: AS35_3582 (protein)
chain: MNPQKHSASVAEEQMLAHFRAHAPQQPAPALDQAILAAARRQAAHVEPARSWWRRWLEASRRPRWQAAFASLLGVALVLGLVSHNVLDDAERQARPEVAFSDVPLRDGVAGAAAAKRAMRAPAAPAPLSGEMSEPPALLASYASSGEAPQLMAEAAPPAPAALADRPPAQAAQQAKVQAALAGDFVAQARGKAVAVKPEVLDEALGAVLALREQGKTEQAATQLAELQKRFPGENLVERLERLATIAASARKRP
B3: AS37_2513 (protein)
chain: MSSAPATKEEVDFALKVRRALDERAASLPDATTDRLAAARRAALARKKPDAAIVLVPALAGSAGTLELRPPGEPRKSLARRLARAWPLALLLAGLIGIAYWEDMQRTAELADIDAAMLSDNLPLTAYLDHGFNAYLSHTH

Biological target: T1, ECF04_1609

| Binder | fold repression |
| --- | --- |
| B1 | 4.63 |
| B2 | 6.84 |
| B3 | 4.3 |

Biological target: T2, ECF38_1322

| Binder | fold repression |
| --- | --- |
| B1 | 54.2 |
| B2 | 3.42 |
| B3 | 2.73 |

Biological target: T3, ECF27_4265

| Binder | fold repression |
| --- | --- |
| B1 | 2.33 |
| B2 | 2.28 |
| B3 | 2.71 |

Biological target: T4, ECF22_1147

| Binder | fold repression |
| --- | --- |
| B1 | 6.04 |
| B2 | 10.9 |
| B3 | 8.31 |

Biological target: T5, ECF14_3200

| Binder | fold repression |
| --- | --- |
| B1 | 8.3 |
| B2 | 11.7 |
| B3 | 11.4 |

Biological target: T6, ECF34_1384

| Binder | fold repression |
| --- | --- |
| B1 | 6.19 |
| B2 | 9.31 |
| B3 | 6.47 |

Biological target: T7, ECF35_3582

| Binder | fold repression |
| --- | --- |
| B1 | 2.8 |
| B2 | 311 |
| B3 | 2.62 |

biological target: ECF27_1331

| Binder | fold repression |
| --- | --- |
| B1 | 5.61 |
| B2 | 7.23 |
| B3 | 6.45 |

Biological target: T8, ECF16_973

| Binder | fold repression |
| --- | --- |
| B1 | 4.09 |
| B2 | 3.39 |
| B3 | 3.54 |

Biological target: T9, ECF03_1198

| Binder | fold repression |
| --- | --- |
| B1 | 5.72 |
| B2 | 6.26 |
| B3 | 4.01 |

Biological target: T10, ECF11_3726

| Binder | fold repression |
| --- | --- |
| B1 | 11.2 |
| B2 | 18.8 |
| B3 | 11.6 |

Biological target: T11, ECF37_2513

| Binder | fold repression |
| --- | --- |
| B1 | 6.38 |
| B2 | 8.97 |
| B3 | 13.5 |

Biological target: T12, ECF03_1244

| Binder | fold repression |
| --- | --- |
| B1 | 4.75 |
| B2 | 4.18 |
| B3 | 3.44 |

Biological target: T13, ECF33_375

| Binder | fold repression |
| --- | --- |
| B1 | 3.13 |
| B2 | 2.9 |
| B3 | 2.48 |
